Data as given in patent US20190276511A1 (BIONTECH RNA PHARMACEUTICALS, published 2019).
Read-outs that look alike come from different tables or passages of the source.

T1: OX40 receptor on cells (human, UniProt P43489 29-277)
T1 sequence (looked up): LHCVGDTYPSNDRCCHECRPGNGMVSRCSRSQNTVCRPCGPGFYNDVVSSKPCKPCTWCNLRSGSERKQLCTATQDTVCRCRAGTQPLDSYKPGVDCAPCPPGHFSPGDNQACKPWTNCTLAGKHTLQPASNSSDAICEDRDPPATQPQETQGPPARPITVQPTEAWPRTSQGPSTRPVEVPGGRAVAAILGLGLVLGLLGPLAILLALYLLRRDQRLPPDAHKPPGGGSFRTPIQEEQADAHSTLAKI

T2: CD27-Fc (human, UniProt P26842 20-191)
T2 construct: extracellular domain; hinge included for covalent assembly; also called CD27 receptor-Fc fusion protein; not shown: human Fc gamma 1 region including the hinge region
T2 sequence (looked up): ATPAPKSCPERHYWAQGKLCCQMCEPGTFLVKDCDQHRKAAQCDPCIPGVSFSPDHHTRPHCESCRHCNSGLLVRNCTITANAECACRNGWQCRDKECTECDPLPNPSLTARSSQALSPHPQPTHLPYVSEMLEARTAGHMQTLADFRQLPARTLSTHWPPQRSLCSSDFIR

T3: OX40-Fc (human, UniProt P43489 29-214)
T3 construct: extracellular domain; hinge included for covalent assembly; also called OX40 receptor-Fc fusion protein; not shown: human Fc gamma 1 region including the hinge region
T3 sequence (looked up): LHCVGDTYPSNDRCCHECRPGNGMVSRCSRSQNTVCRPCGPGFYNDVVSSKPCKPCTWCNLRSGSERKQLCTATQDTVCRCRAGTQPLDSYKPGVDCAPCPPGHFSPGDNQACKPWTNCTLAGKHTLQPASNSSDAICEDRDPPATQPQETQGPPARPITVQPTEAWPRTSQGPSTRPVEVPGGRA

B1: OX40L-CD27L (ligand)
chain: QVSHRYPRIQSIKVQFTEYKKEKGFILTSQKEDEIMKVQNNSVIINCDGFYLISLKGYFSQEVNISLHYQKDEEPLFQLKKVRSVNSLMVASLTYKDKVYLNVTTDNTSLDDFHVNGGELILIHQNPGEFCVLGGGGSGGGGSGGGGSSLGWDVAELQLNHTGPQQDPRLYWQGGPALGRSFLHGPELDKGQLRIHRDGIYMVHIQVTLAICSSTTASRHHPTTLAVGICSPASRSISLLRLSFHQGCTIASQRLTPLARGDTLCTNLTGTLLPSRNTDETFFGVQWVRP
notes: Duokine from HEK293, FLAG-purified; VH leader left out; homotrimer by SEC; also called Duokine OX40L-CD27L; not shown: N-terminal FLAG tag
B2: scOX40L-scCD27L (ligand)
chain: QVSHRYPRIQSIKVQFTEYKKEKGFILTSQKEDEIMKVQNNSVIINCDGFYLISLKGYFSQEVNISLHYQKDEEPLFQLKKVRSVNSLMVASLTYKDKVYLNVTTDNTSLDDFHVNGGELILIHQNPGEFCVLGGGSGGGQVSHRYPRIQSIKVQFTEYKKEKGFILTSQKEDEIMKVQNNSVIINCDGFYLISLKGYFSQEVNISLHYQKDEEPLFQLKKVRSVNSLMVASLTYKDKVYLNVTTDNTSLDDFHVNGGELILIHQNPGEFCVLGGGSGGGQVSHRYPRIQSIKVQFTEYKKEKGFILTSQKEDEIMKVQNNSVIINCDGFYLISLKGYFSQEVNISLHYQKDEEPLFQLKKVRSVNSLMVASLTYKDKVYLNVTTDNTSLDDFHVNGGELILIHQNPGEFCVLGGGGSGGGTGGGGSSLGWDVAELQLNHTGPQQDPRLYWQGGPALGRSFLHGPELDKGQLRIHRDGIYMVHIQVTLAICSSTTASRHHPTTLAVGICSPASRSISLLRLSFHQGCTIASQRLTPLARGDTLCTNLTGTLLPSRNTDETFFGVQWVRPGGGSGGGSLGWDVAELQLNHTGPQQDPRLYWQGGPALGRSFLHGPELDKGQLRIHRDGIYMVHIQVTLAICSSTTASRHHPTTLAVGICSPASRSISLLRLSFHQGCTIASQRLTPLARGDTLCTNLTGTLLPSRNTDETFFGVQWVRPGGGSGGGSLGWDVAELQLNHTGPQQDPRLYWQGGPALGRSFLHGPELDKGQLRIHRDGIYMVHIQVTLAICSSTTASRHHPTTLAVGICSPASRSISLLRLSFHQGCTIASQRLTPLARGDTLCTNLTGTLLPSRNTDETFFGVQWVRP
notes: scDuokine from HEK293, FLAG-purified; VH leader left out; also called single-chain Duokine scOX40L-scCD27L; not shown: N-terminal FLAG tag
B3: CD40L-CD27L (ligand)
chain: GDQNPQIAAHVISEASSKTTSVLQWAEKGYYTMSNNLVTLENGKQLTVKRQGLYYIYAQVTFCSNREASSQAPFIASLCLKSPGRFERILLRAANTHSSAKPCGQQSIHLGGVFELQPGASVFVNVTDPSQVSHGTGFTSFGLLKLGGGGSGGGGSGGGGSSLGWDVAELQLNHTGPQQDPRLYWQGGPALGRSFLHGPELDKGQLRIHRDGIYMVHIQVTLAICSSTTASRHHPTTLAVGICSPASRSISLLRLSFHQGCTIASQRLTPLARGDTLCTNLTGTLLPSRNTDETFFGVQWVRP
notes: Duokine from HEK293, FLAG-purified; VH leader left out; homotrimer by SEC; also called Duokine CD40L-CD27L; not shown: N-terminal FLAG tag
B4: scCD27L-scCD40L (ligand)
chain: SLGWDVAELQLNHTGPQQDPRLYWQGGPALGRSFLHGPELDKGQLRIHRDGIYMVHIQVTLAICSSTTASRHHPTTLAVGICSPASRSISLLRLSFHQGCTIASQRLTPLARGDTLCTNLTGTLLPSRNTDETFFGVQWVRPGGGSGGGSLGWDVAELQLNHTGPQQDPRLYWQGGPALGRSFLHGPELDKGQLRIHRDGIYMVHIQVTLAICSSTTASRHHPTTLAVGICSPASRSISLLRLSFHQGCTIASQRLTPLARGDTLCTNLTGTLLPSRNTDETFFGVQWVRPGGGSGGGSLGWDVAELQLNHTGPQQDPRLYWQGGPALGRSFLHGPELDKGQLRIHRDGIYMVHIQVTLAICSSTTASRHHPTTLAVGICSPASRSISLLRLSFHQGCTIASQRLTPLARGDTLCTNLTGTLLPSRNTDETFFGVQWVRPGGGGSGGGTGGGGSGDQNPQIAAHVISEASSKTTSVLQWAEKGYYTMSNNLVTLENGKQLTVKRQGLYYIYAQVTFCSNREASSQAPFIASLCLKSPGRFERILLRAANTHSSAKPCGQQSIHLGGVFELQPGASVFVNVTDPSQVSHGTGFTSFGLLKLGGGSGGGGDQNPQIAAHVISEASSKTTSVLQWAEKGYYTMSNNLVTLENGKQLTVKRQGLYYIYAQVTFCSNREASSQAPFIASLCLKSPGRFERILLRAANTHSSAKPCGQQSIHLGGVFELQPGASVFVNVTDPSQVSHGTGFTSFGLLKLGGGSGGGGDQNPQIAAHVISEASSKTTSVLQWAEKGYYTMSNNLVTLENGKQLTVKRQGLYYIYAQVTFCSNREASSQAPFIASLCLKSPGRFERILLRAANTHSSAKPCGQQSIHLGGVFELQPGASVFVNVTDPSQVSHGTGFTSFGLLKL
notes: scDuokine from HEK293, FLAG-purified; VH leader left out; also called single-chain Duokine scCD27L-scCD40L; not shown: N-terminal FLAG tag
B5: CD27L-CD40L (ligand)
chain: SLGWDVAELQLNHTGPQQDPRLYWQGGPALGRSFLHGPELDKGQLRIHRDGIYMVHIQVTLAICSSTTASRHHPTTLAVGICSPASRSISLLRLSFHQGCTIASQRLTPLARGDTLCTNLTGTLLPSRNTDETFFGVQWVRPGGGGSGGGGSGGGGSGDQNPQIAAHVISEASSKTTSVLQWAEKGYYTMSNNLVTLENGKQLTVKRQGLYYIYAQVTFCSNREASSQAPFIASLCLKSPGRFERILLRAANTHSSAKPCGQQSIHLGGVFELQPGASVFVNVTDPSQVSHGTGFTSFGLLKL
notes: Duokine from HEK293, FLAG-purified; VH leader left out; homotrimer by SEC; also called Duokine CD27L-CD40L; not shown: N-terminal FLAG tag
B6: scCD40L-scCD27L (ligand)
chain: GDQNPQIAAHVISEASSKTTSVLQWAEKGYYTMSNNLVTLENGKQLTVKRQGLYYIYAQVTFCSNREASSQAPFIASLCLKSPGRFERILLRAANTHSSAKPCGQQSIHLGGVFELQPGASVFVNVTDPSQVSHGTGFTSFGLLKLGGGSGGGGDQNPQIAAHVISEASSKTTSVLQWAEKGYYTMSNNLVTLENGKQLTVKRQGLYYIYAQVTFCSNREASSQAPFIASLCLKSPGRFERILLRAANTHSSAKPCGQQSIHLGGVFELQPGASVFVNVTDPSQVSHGTGFTSFGLLKLGGGSGGGGDQNPQIAAHVISEASSKTTSVLQWAEKGYYTMSNNLVTLENGKQLTVKRQGLYYIYAQVTFCSNREASSQAPFIASLCLKSPGRFERILLRAANTHSSAKPCGQQSIHLGGVFELQPGASVFVNVTDPSQVSHGTGFTSFGLLKLGGGGSGGGTGGGGSSLGWDVAELQLNHTGPQQDPRLYWQGGPALGRSFLHGPELDKGQLRIHRDGIYMVHIQVTLAICSSTTASRHHPTTLAVGICSPASRSISLLRLSFHQGCTIASQRLTPLARGDTLCTNLTGTLLPSRNTDETFFGVQWVRPGGGSGGGSLGWDVAELQLNHTGPQQDPRLYWQGGPALGRSFLHGPELDKGQLRIHRDGIYMVHIQVTLAICSSTTASRHHPTTLAVGICSPASRSISLLRLSFHQGCTIASQRLTPLARGDTLCTNLTGTLLPSRNTDETFFGVQWVRPGGGSGGGSLGWDVAELQLNHTGPQQDPRLYWQGGPALGRSFLHGPELDKGQLRIHRDGIYMVHIQVTLAICSSTTASRHHPTTLAVGICSPASRSISLLRLSFHQGCTIASQRLTPLARGDTLCTNLTGTLLPSRNTDETFFGVQWVRP
notes: scDuokine from HEK293, FLAG-purified; VH leader left out; also called single-chain Duokine scCD40L-scCD27L; not shown: N-terminal FLAG tag

Legend:
OX40 receptor on cells [1] = target: T1, OX40 receptor on cells; assay: cell-based or functional assay
CD27-Fc [2] = target: T2, CD27-Fc; assay: ELISA, coated receptor-Fc
Protocol: (§1) Receptor binding of the Duokines was analyzed by ELISA using fusion proteins of the extracellular region of CD40, CD27, 4-1BB and OX40, respectively, with the human Fcγ1 region including the hinge region for covalent assembly (CD40-Fc, CD27-Fc, 4-1BB-Fc, OX40-Fc). Receptor-Fc fusion proteins (200 ng/well) were coated overnight at 4° C. and remaining binding sites were blocked with PBS, 2% skimmed milk powder (2% MPBS).

4-1BB-Fc = target: T4, 4-1BB-Fc (human, UniProt Q07011 24-186); assay: ELISA, coated receptor-Fc
T4 construct: extracellular domain; hinge included for covalent assembly; also called 4-1BB receptor-Fc fusion protein; not shown: human Fc gamma 1 region including the hinge region

CD40-Fc [3] = target: T5, CD40-Fc (human, UniProt P25942 21-193); assay: ELISA, coated receptor-Fc
T5 construct: extracellular domain; hinge included for covalent assembly; also called CD40 receptor-Fc fusion protein; not shown: human Fc gamma 1 region including the hinge region
T5 sequence (P25942 21-193 limits assumed): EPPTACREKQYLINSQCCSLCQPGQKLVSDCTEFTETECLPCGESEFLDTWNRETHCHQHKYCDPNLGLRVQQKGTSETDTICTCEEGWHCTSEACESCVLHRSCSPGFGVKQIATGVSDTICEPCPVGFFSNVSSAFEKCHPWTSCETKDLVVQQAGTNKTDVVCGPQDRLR

CD27-Fc [4] = target: T2, CD27-Fc; assay: ELISA, coated receptor-Fc; remark: listed apart in the source
Protocol: as §1, with “of the single-chain Duokines was” for “of the Duokines was”, “(2% MPBS). […] The interactions between scDuokine and receptor were dose-dependent with EC₅₀ values in the low nanomolar ranges (FIG. 11 AB, Tab. 2).” for “(2% MPBS).”

OX40 receptor on cells [5] = target: T1, OX40 receptor on cells; assay: cell-based or functional assay; remark: listed apart in the source
CD40 receptor on cells [6] = target: T6, CD40 receptor on cells (human, UniProt P25942 21-277); assay: cell-based or functional assay
T6 sequence (P25942 21-277): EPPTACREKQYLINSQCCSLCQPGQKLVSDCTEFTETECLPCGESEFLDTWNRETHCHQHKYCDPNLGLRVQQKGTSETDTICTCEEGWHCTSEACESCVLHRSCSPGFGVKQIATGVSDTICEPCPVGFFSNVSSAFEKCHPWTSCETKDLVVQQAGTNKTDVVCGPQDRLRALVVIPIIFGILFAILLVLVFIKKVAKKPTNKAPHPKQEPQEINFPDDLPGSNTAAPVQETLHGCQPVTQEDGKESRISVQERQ

CD40-Fc [7] = target: T5, CD40-Fc; assay: ELISA, coated receptor-Fc; remark: listed apart in the source
Protocol: as §1

OX40-Fc = target: T3, OX40-Fc; assay: ELISA, coated receptor-Fc
CD40-Fc [8] = target: T5, CD40-Fc; assay: ELISA, coated receptor-Fc; remark: listed apart in the source
Protocol: as §1, with “of the single-chain Duokines was” for “of the Duokines was”, “(2% MPBS). […] The interactions between scDuokine and receptor were dose-dependent with EC₅₀ values in the low nanomolar ranges (FIG. 11 AB, Tab. 2).” for “(2% MPBS).”

CD40 receptor on cells [9] = target: T6, CD40 receptor on cells; assay: cell-based or functional assay; remark: listed apart in the source

Binder	Receptor activation (EC50, nM) (OX40 receptor on cells [1]) [nM]	EC50 (CD27-Fc [2]) [nM]	binding result (4-1BB-Fc)	binding result (CD40-Fc [3])	EC50 (CD27-Fc [4]) [nM]	Receptor activation (EC50, nM) (OX40 receptor on cells [5]) [nM]	Receptor activation (EC50, nM) (CD40 receptor on cells [6]) [nM]	EC50 (CD40-Fc [7]) [nM]	binding result (OX40-Fc)	EC50 (CD40-Fc [8]) [nM]	Receptor activation (EC50, nM) (CD40 receptor on cells [9]) [nM]
B1	6.58	1.7	no binding (tested: 100 nM (FIG. 4))	no binding (tested: 100 nM (FIG. 4))	–	–	–	–	–	–	–
B2	–	–	no binding (tested: 100 nM (FIG. 10))	no binding (tested: 100 nM (FIG. 10))	4.62	1.27	–	–	–	–	–
B3	–	3.15	no binding (tested: 100 nM (FIG. 4))	–	–	–	2.36	8.06	no binding (tested: 100 nM (FIG. 4))	–	–
B4	–	–	no binding (tested: 100 nM (FIG. 10))	–	3.3	–	–	–	no binding (tested: 100 nM (FIG. 10))	8.04	3.7
B5	–	5.9	no binding (tested: 100 nM (FIG. 4))	–	–	–	2.99	3.31	no binding (tested: 100 nM (FIG. 4))	–	–
B6	–	–	no binding (tested: 100 nM (FIG. 10))	–	3.42	–	–	–	no binding (tested: 100 nM (FIG. 10))	4.26	3.1
